From the nanobody polyreactivity screen of Harvey et al. (2022)

Test: yeast display, Sf9 membrane polyspecificity reagent, FACS + sequencing; frameworks hold sequencing errors
In short: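 Synthetic nanobody libraries on Saccharomyces cerevisiae BJ5465 were galactose-induced for 36–48 hours, stained 1 hour at 4 °C with 10% biotinylated, detergent-solubilized Sf9 membrane reagent and enriched on streptavidin microbeads. FACS then separated cells into low and high (top ~1%) gates by anti-HA (expression) and streptavidin (reagent binding) fluorescence. Genes were colony-PCR amplified, MiSeq 2 × 250 sequenced and CDR-length filtered. A clone's polyreactivity label is that of its gate of origin.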

Row | Sequence | polyreactivity (PSR sort gate)
1 | QVQLVESGGGLVQAGGSLRLSCAASGFTFSFYAMGWYRQAPGKERELVAAITNGGSTYYADSVKGRFTISRDNAKNTVYLQMNSLKPEDTAVYYCAAEWDYPWWRIVAVYGYEYWGQGTQVTVSS | low polyreactivity
2 | QVQLVESGGGLVQAGGSLRLSCAASGRTFGGYAMGWYRQAPGKERELDASITSGGSTYYADSVKGRFTISRDNAKNTVYLEMNSLKPEDTAVYYCAADTYFETSTRAIPSNAYWGQGTQVTVSS | low polyreactivity
3 | QDQLVESGGGLVQARGRQRLSCAATGSTFYRNALGWYRQAPGKEREFVAAISFRGGGTYADSVKGRFTISRDNAKNTVYLQMNSLKPEDTAVYYFGADHLSYRRRYEYWGQGTQVTVSS | low polyreactivity
4 | QVQLVESGGGLVQAGGSLRLSCAASGFIFPSNAMGRYRQAPGKERELVAAISSRGTRTYYADSVKGRFTISRDNAKNTVYLQMNCLKPEDTAVYYCAKYGYWGQGTQVTVSS | high polyreactivity
5 | QVQLVESGGGLVQAGGSLRLSCAASGRTFRSNAMGWYRQAPGKERELVAVITRSGGSTDYADSVKGRFTISRDNAKNTVYLQMNSLKPEDTAVYYCAVRRYDYWGQVTQVTVSS | high polyreactivity
6 | QVQLVESGGGLVQAGGSLRLSCAASGSNFDDYVMGWYRQAPGKERELVAGINSRGTSTDYADSVKGRFTISRDNAQNTVYLQMNSLKPEDTAVYYCAADDSHGYDYWGQGTQVTVSS | low polyreactivity
7 | QVQLVESGGGLVQAGGSLRLSCAASGFIFYQYAMGWYRQAPGKERELVAVINKSGGRTYYADSVKGRFTISRDNAKNTVYLQMNSLKPEDPAVYYCNAVSKLAVNLDYWGQGTQVTVSS | high polyreactivity
8 | QVQLVESGGGLVQAGGSLRLSCAASGRTFYRNAMGWYRQAPGKDRELVAAISSGGSTTYADSVKGRFTISRDNAKNTVFFQMNSLKPEATAVYYCAARSHAGSVSPRLKEYDYWGQGTLVTVSS | low polyreactivity
9 | QVQLVESGGGLVQAVGSLRLSCAASGFIFYRNVMGWYREAPGKERELVAAISGSGGRTYYADSVKGRFTISRDNAKNTVYLQLNSLKPEDTAVYDCAADASLEGDYWGQGTQVTVSS | high polyreactivity
10 | QVQLVESGGGLVQAGGSLRLSCAASGSIQARYAMGWYRQAPGKERELVASITTSGDSTYYADSVKGRFTISRDNAKNTVYLQMNSLKPEDTAVSYCARRRWGWGYQHFPYYYWGQGTQVTVSS | high polyreactivity
11 | QVQLVESGGGLVQAGGSLRLSCAASGFIFDQYAMGWYRQAPGKERELVAAITSGGDTNYADSVKGRFTISRDNAKNTVYFQMNSLKPEDTAVYYCNVDVPGVRFEYWGQGTQVTVSS | low polyreactivity
12 | QVQLVESGGGLVQAGGSLRLSCAASGSIFGGDGMGWYRQAPGKERQLVAAITSGSSTYYADSVKGRFTISRDNAKNTVYLQLNILKPEDTAVYYCAARPYPHSAYEGDYWGRGTQVTVSS | low polyreactivity
13 | QVQLVESGGGLVQAGGSLRLSCAASGITFYVNAMGWYRQAPGKERELVAAITQSVDITSYADSVKGRFTISRDNAKNTVYLQMNSLKPEDTAVYYCATRGIPDDNARDYWGQGTQVTVSS | low polyreactivity
14 | QVMLVESGGGLVQAGGSLRLSCAASGSTFEYYAMGWYRQAPGKERELVATISIDGRTNYADSVKGRFTISRDNAKNTVYLQMNSLNPEDTAVYYCGKRVVVWYFGTGDYWGQGTQVTVSS | low polyreactivity
15 | QVQLVESGGGLVQAGGSLRLSCAASGRIFVVNAMGWYRQAPGKERELVAAITRRGGSTYADSVKGRFTISRDNAKNTVYLQMNSLKPEDTAVYYCNKLVTGGSWSPGHYRYNYWGQGTQVTVSS | high polyreactivity
16 | QVQLVESGGGLVQAGGSLRLSCAASGIIFLYYAMGWYRQAPGKEREFVAAISWSGGRTYYADSVKGRFTISRDNAKNTVYLQMNSLKPEDTAVYYCAATYALRKTGYDYWGQGTQVTVSS | high polyreactivity
17 | QVQLVESGGGLVQAGGCLRVSCAASGNICVIYAMGGDRKAPGKERELLAAINWNSGRTYYADSVKGRFTISRDNAKNTVYLQMNSLKPEDTAVYYCAARTWGFGYPEFGYWGQGTQVTVSS | high polyreactivity
18 | QVQLVESGGGLVQAGGSLRLSCAASGGIFSLYAMGWYRQAPGKEREFVAAISFTGASTYYADSVKGRFTISRDNAKNTVYLQMNSLKPEDTAVYYCAAYWDAEGRRYTRLDYWGQGTQVTLSS | low polyreactivity
19 | QVQLVESGGGLVQAGGSLRLSCAASGSTFKIYAMGWYRPAPGKERELVAAITRGASTYADSVKGRFTISRDNAKNTVYLQMNSLKPEDTAVYYCAAYRRPSRSGDKPIGFDYWGQGTQVTVSS | high polyreactivity
20 | QVQLVESGGGLVQAGGSLRLSCAASGITFPKYAMGWYRQAPGKERELVAAITKSGGSTYYADSVKGRFTISRDNAKNTVYLQMNSLKPEDTAVYYCAARPRYGEYDYWGQGTQVTVSS | high polyreactivity
21 | QVQIVESGGGLVQAGCSLRLSCAASGFIFRRNAMGWYRQAPGKERELVATIRASGGRTYYADSEKGRFTISRDNAKNTVYLQMNSMKPEDTAVYYCAADTYRDVRDPYYYWGQGTQVTVSS | high polyreactivity
22 | QVQLEESGGGLVQAGGSLRLSCAASGFIITGYTMGWYRQAPGKERELVAVISYSGGNTYYADSVKGRFTSSRDNEKNTVYLQMISVKPDYTAVYYCNKLTYKGYEYWGQGTQVNVSS | high polyreactivity

Row | Sequence | polyreactivity (PSR sort gate)
23 | QVQLVESGGGLVHAGGSLRLSCAASGSIFTDYAMGWYRQAPGKERELVAVIDIDGSTYYADSVKGRFTISRDNEKNSVYLQMNSLKPEDTAVYYCAAGYTYYSLYGYWGQGTQVTVSS | low polyreactivity
24 | QVQLVESGGGLVQAGGSLRLSCAASGFTFITNAMGWYRQAPGKERELVASISIGGSTNYADSVKGRFTISRDNAKNTVYLQMNSLKPEDTAVYYCAARVYRRLFLPGRYGRPLGYWGQGTQVTVTS | high polyreactivity
25 | QVQLVESGGGLVQAGGSLRLSCAASGSILWLYVMGWYRQAPGKERELVATITSSGGSTYYADSVKGRFTISRDNAKNTVYLQMNSLKPEDTAVYYCAAQTYYSYDYWGQGTQVTVSS | low polyreactivity
26 | QVQLVESGGGLVQAGGSLRLSCAASGSIFTGNAMGWYRQAPGKERELVAGISKSGGSTYYADSVKGRFTISRDNAKNTVYLQMNSLKPEDTAVYYCAAREGWWPYYYWGQGTQVTVSS | high polyreactivity
27 | QVQLVESGGGLVQAGGSLRLSCAASGRIFPYNAMGWYRQAPGKEREFVASIRTRGVSTYYADSVKGRFTISRDNAKNTVYLQMNSLKPEDTAVYYCNAQRPGYAKGPRYDYWGQGTQVTVSS | high polyreactivity
28 | QVQLVESGGGLVQAGGSLRLSCAASGFTFRVYAMGWYRQAPGKERELVAAISVRGDSTYYADSVKGRFTISRDNAKNTVYLQMNSLKPEDTAVYYCNAALLGKQYYSNPNYDYWGQGTQVTVSS | high polyreactivity
29 | QVQLVESGGGLVQAGGSLRLSCAASGSTFREYTMGWYRQAPGKEWDLVAAITNSGGSTYYADSVKGRFTISRDNAKNTVYLQMNSLKPEDTAVYYCAAEVGIVDYDYWGQGNQVTVSS | low polyreactivity
30 | QVQLVESGGGLVQAGGSLRLSCAASGPIFFINAMGSYRQAPGKEREFLATISWSGGSTYYADSVKGRFTISRDNAKNTVYLQMNSLKPEDTAVYYCNAETYGSRWRRQYGYWGQGTQVTVSS | high polyreactivity
31 | QVQLVESGGGLVQAGGSLRLSCAASGRIFSQNTMGWYRQAPGKERELVATITTSDGSTSYADSVKGRFTISRDNAKNTVYLQMNSLKPEDTAVYYCNARLSKYEGYWVWQYDYWGQGTQVTVSS | low polyreactivity
32 | QVQLVESGGGLVQAGGSLRFSCAASGSTFSYYDMGWYRQAPGKEREMVAAISWNGGTTFYADSVKGRFTISRDNAMNTVYLQMKSLKPEDTAVYYCAVTGFEVLWPSLGGELDYWGQGTQVTVSS | low polyreactivity
33 | QVQLVESGGGLVQAGGSLRLRCAASGRIFVHYVMVWSRQAPGKEREFVAAITIGSTYADSVKGRFTISRDNAKNTVYLQMNSLKPEDTAVYYCNARWVVNVRTQGSPPYKYDYWGQGSQVTVSS | low polyreactivity
34 | QVQLVESGGGLVQAGGSLRLSCAASGRTFTTNTMGWYRQAPGKERELVAGIRWSGSRTYYADSVKGRFTISRDNAKITVFLQMNSLKPEDSAVYYCAVGRRSDAPLYVYRFDYWGQGTQVTVSS | low polyreactivity
35 | QVQLVESGGGLVQAGGPLRVSCAASGIIFDYNAMGWYRQAPGKERELVAAITSTDNTNYADSVKGRFTISRDNAKNTVYLQKNCLKPEDTAVYYCAACSYSRYHYSLYFDFDYWGQGTQVTVSS | low polyreactivity
36 | QVQLVESGGGLVQAGGSLRLSCAASGFIFRYYAMGWYRPAPGKERELVAAISGSGGSTYYADSVKGRFTISRDNAKNTVYLQMNSLKPEDTAVYYCNKVVLYGAHYYYWGQGTQVTVSS | high polyreactivity
37 | QVQLVESGGGLVQAGGSLRLSCDSSGSIFGYYAMGWYRQAPGKERELVAAITSGGNTYYADSVKGRFTISRDNAKNTVYLQMNSLKPEDTAVYYCNAVWRTRDYDYWGQGTQVTVSS | low polyreactivity
38 | QVQLVESGGGLVQAGGSLRLSSAASGRTFYGNAMGWYRQAPGKERELVATINYSGGSTYYADSVKGRFTISRDNAKNTVYLQMNSLKPEDTAVYYCAAVDPEEFDYWGQGTQVTVSS | low polyreactivity
39 | QVQLVESGGGLVQAGGSLRLSCAASGRIFVPYAMGWYRQAPGKERELVAAISRNTGSTYYADSVKGRFTISRDNAKNTVYLQMNSLKPEDTAVYYCAAGSRVRYDGGYKINGYWGQGTQVTVSS | high polyreactivity
40 | QVQLGESGGGLVQAGGSLRLSCAASGSTFESYAMGWYRPAPGKEWELVAAINGGGRTYYADSVKGRFTISRDTAKNTVYLQMNSLNPEDTAVYYCAAEYRRGYYWPWGWEYYWGQGTQVTVSS | low polyreactivity
41 | QVQLVESGGGLVQAGGSLRISCAASGLTFADNAMGWYRQAPGKERELVAAISRSGSRTYYADSVKGRFTISRDNAKNTVYLQMNSLKPEDTAVYYCNAVWWYYRVFDYWGQCTQVTVSS | high polyreactivity
42 | QVQLVESGGGLVQAGGSLRISCAASGFIFPFYAMGWYRQAPVKERELVATITSGGSTNYADSVKGRFTISRDNAKNTVYLQMNSQKPEDTAVYYCAAVIVPYGPSTFRVVGLDYWGQGTQVTVSS | low polyreactivity
43 | QVQLVESGGGLVQAGGSLRLSCAASGRIFGLNAMGWYRQAPGKEREFVAAITWRGGRTYYADSVKGRFTISRDNAKNTVYLQMNSLKPEDTAVYYCAADGGSTLDYYWGQGTQVTVSS | low polyreactivity
